T1: human Tyro3 (rhTyro3/Dtk-Fc chimera) (Homo sapiens, UniProt Q06418)
T1 construct: Soluble recombinant antigens corresponding to the extracellular domains of members of the human TAM receptor family; purchased R&D Systems 859-DK
T1 sequence (Q06418 41-429 limits assumed): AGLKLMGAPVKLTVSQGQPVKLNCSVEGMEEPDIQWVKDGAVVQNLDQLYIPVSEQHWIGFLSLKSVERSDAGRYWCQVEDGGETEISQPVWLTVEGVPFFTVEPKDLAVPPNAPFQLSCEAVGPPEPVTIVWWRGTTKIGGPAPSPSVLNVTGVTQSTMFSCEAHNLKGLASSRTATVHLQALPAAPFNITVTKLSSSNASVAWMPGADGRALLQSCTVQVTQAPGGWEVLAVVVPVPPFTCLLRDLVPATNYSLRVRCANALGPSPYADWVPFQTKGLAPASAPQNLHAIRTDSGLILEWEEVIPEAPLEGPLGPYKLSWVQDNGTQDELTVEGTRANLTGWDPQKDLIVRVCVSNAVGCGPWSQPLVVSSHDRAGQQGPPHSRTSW

B1: 10C9: mouse anti-Axl monoclonal antibody from hybridoma UT-10C9-B9, IgG2b; VH SEQ ID NO: 3, VL SEQ ID NO: 4 (antibody, listed as Mus musculus, V domains shown)
VH: QVQLQQPGPELVKPGASVKISCKTSDYNFTRYYIHWVKQRPGQGLEWIGWIYPGTGDSKYNEKFKGRATLTADTSSSTAYMQLSSQTSEDSAVYFCARNGNYWYFDVWGAGTAVTVSS
VL: DIVMTQAAPSGPVTPGESVSISCRSSKSLLHSNGNTYLYWFLQRPGQSPQLLIYRMSNLASGVPDRFSGSGSGTAFTLRISRVEAEDVGIYYCMQHREYPFTFGGGTKLEIK
B2: 10G5: mouse anti-Axl monoclonal antibody from hybridoma WR-10G5-E5, IgG1; VH SEQ ID NO: 21, VL SEQ ID NO: 22 (antibody, listed as Mus musculus, V domains shown)
VH: QVQLQQSGAELVRPGASVKLSCKASGYSFTDFYINWVRQRPGQGLEWIARIFPGGDNTYYNEKFKGKATLTAEESSSTAYIQLSSLTSEDSAVYFCARRGLYYAMDYWGQGISVTVSS
VL: DVLMTQTPLSLPVSLGDQASISCRSSQSLVHSNGIPYLHWYLQKPGQSPKLLIYRVSNRFSGVPDRFSGSGSGTDFTLKISRVEAEDLGVYFCSQGTHVPPTFGGGTKLEIK

Tests used:
[1] = molecular target: T1, human Tyro3 (rhTyro3/Dtk-Fc chimera); assay: Biacore binding analysis on immobilized human Tyro3; settings: 10 μg/mL, 25° C.
Procedure: All binding experiments were performed using Biacore 3000 instrument (GE Healthcare) at 25° C. Soluble recombinant antigens corresponding to the extracellular domains of members of the human TAM receptor family, Axl (rhAxl-Fc chimera; R&D Systems, Cat. no. 154-AL), Mer (rhMer-Fc chimera; R&D Systems, Cat. no. 891-MR) and Tyro3 (rhTyro3/Dtk-Fc chimera; R&D Systems, Cat. no. 859-DK) were immobilized on the surface of CM5 sensor chip using amine coupling at the surface density of 393.0, 303.6 and 364.0 resonance units (RU), respectively. The Biacore run was performed in an automatic mode using Binding analysis wizard. Samples containing either MAb 10C9 or MAb 10G5 at concentration 10 μg/mL in HBS-EP buffer (GE Healthcare) were injected over the surfaces with immobilized antigens at flow rate of 30 μL/min for 3 min (association) followed by 5 min dissociation.
The binding experiments were performed using Biacore 3000 instrument (GE Healthcare) at 25° C. The soluble recombinant antigens corresponding to human Axl (rhAxl-Fc chimera; R&D Systems, Cat. no. 154-AL), mouse Axl (rmAxl-Fc chimera; R&D Systems, R&D Systems; Cat. no. 854-AX) and human Tyro3 (rhTyro3/Dtk-Fc chimera; R&D Systems, Cat. no. 859-DK) were immobilized on the surface of CM5 sensor chip using amine coupling at the surface density of 1,308.0, 2,115.9 and 1,429.0 RU, respectively. The Biacore runs were performed in an automatic mode using Binding analysis wizard.
The sample containing either MAb 10C9, MAb 10G5 or recombinant mouse (rm) Axl-ligand Gas6 (R&D Systems, Cat. no. 986-GS/CF) at concentration 10 μg/mL in HBS-EP buffer (GE Healthcare) was injected over the surfaces with immobilized antigens at flow rate of 30 μL/min for 3 min (association) followed by 5 min dissociation.

Axl receptor protein = molecular target: T2, Axl receptor protein (Homo sapiens, UniProt P30530); assay: Western blot analysis of Axl receptor protein expression after antibody treatment; assay type: cell-based; settings: MDA-MB-231 cells, 100 μg/mL, 20 hrs, versus irrelevant IgG or MAb#3
T2 construct: endogenous in cells; host or cells: MDA-MB-231
Procedure: Western blot analysis illustrating effect of treatment with either antibodies of multikinase inhibitor Foretinib on Axl receptor expression. Highly aggressive human mammary carcinoma cells MDA-MB-231 were treated with either antibodies (irrelevant IgG control and anti-Axl MAbs 10C9, 10G5 and MAb#3) or Foretinib for […] before loading on SDS-PAA gel. The levels of actin protein were used as loading controls.
The expression of Axl receptor protein in MBA-MD-231 cells treated with different antibodies was examined by Western blot analysis. The cells were seeded in a 6-well plate at density of 5×10^5 cells per well and cultured overnight before treatment initiation. The cells were treated for 20 hrs in the presence of isotype control (mouse IgG2b), anti-Axl antibodies (10C9, 10G5 and MAb#3) at concentrations of 100 μg/mL or multikinase inhibitor Foretinib (targets Met, Ron, Axl, Tie-2, and VEGFR2) at a concentration of 0.5 μM followed by harvesting by centrifugation at 1,200 rpm for 5 min and washing with sterile PBS. The cells were collected by centrifugation and resuspended in NP40-lysis buffer followed by 30 min incubation on ice. The cell lysates were cleared by centrifugation (12,000 rpm, 4° C., 5 min) and the protein concentrations were determined using BCA protein assay. […]

Row | Molecule | binding to human Tyro3 [1] | binding to human Tyro3 ([1]; listed as 1009) | Axl protein level (Western blot) (Axl receptor protein)
1 | B1 | no binding | no significant binding | significant reduction in the amount of Axl receptor protein
2 | B2 | no significant binding |  | significant reduction of Axl protein
